Laboratory results from patent US20240124563A1.

Key:
[1] = biological target: human MSLN full-length protein, recombinant, on CHO-K1 or HEK293T cells (human) (UniProt Q13421); assay: competitive FACS on CHO-K1-human MSLN-2C8 cells vs Biotin-Tab142; competitor at 8 nM
[2] = biological target: human MSLN full-length protein, recombinant, on CHO-K1 or HEK293T cells (human) (UniProt Q13421); assay: competitive FACS on CHO-K1-human MSLN-2C8 cells vs Biotin-Tab131; competitor at 200 nM
[3] = biological target: human MSLN full-length protein on transfected cells (CHO-K1-hMSLN clones 2C8, 2D11, 2C5; HEK293T-hMSLN clones B8, 2A4, 2A7) (human) (UniProt Q13421); assay: FACS, CHO-K1-hMSLN-2C8 cells, antibody 0.00128 nM
Sequence of human MSLN full-length protein on transfected cells (CHO-K1-hMSLN clones 2C8, 2D11, 2C5; HEK293T-hMSLN clones B8, 2A4, 2A7) (human) (Q13421 other isoform, or with tags, fused parts or gaps limits assumed): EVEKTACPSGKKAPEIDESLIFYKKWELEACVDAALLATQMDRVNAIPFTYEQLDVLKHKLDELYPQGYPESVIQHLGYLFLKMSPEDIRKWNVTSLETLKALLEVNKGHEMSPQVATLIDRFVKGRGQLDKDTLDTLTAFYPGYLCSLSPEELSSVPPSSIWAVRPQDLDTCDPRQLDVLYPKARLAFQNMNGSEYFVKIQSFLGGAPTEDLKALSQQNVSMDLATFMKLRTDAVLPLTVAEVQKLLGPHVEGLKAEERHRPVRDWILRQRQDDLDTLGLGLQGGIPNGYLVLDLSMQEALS

[4] = biological target: human MSLN full-length protein, recombinant, on CHO-K1 or HEK293T cells (human) (UniProt Q13421); assay: competitive FACS on CHO-K1-human MSLN-2C8 cells vs Biotin-Tab142; competitor at 0.0064 nM
[5] = biological target: human MSLN full-length protein on transfected cells (CHO-K1-hMSLN clones 2C8, 2D11, 2C5; HEK293T-hMSLN clones B8, 2A4, 2A7) (human) (UniProt Q13421); assay: FACS, CHO-K1-hMSLN-2C8 cells, antibody 20 nM
[6] = biological target: monkey MSLN full-length protein on HEK293T cells (monkey); assay: FACS, HEK293T-monkey-MSLN cells, antibody 0.0064 nM
[7] = biological target: human MSLN full-length protein, recombinant, on CHO-K1 or HEK293T cells (human) (UniProt Q13421); assay: competitive FACS on CHO-K1-human MSLN-2C8 cells vs Biotin-Tab142; competitor at 200 nM
[8] = biological target: human MSLN full-length protein, recombinant, on CHO-K1 or HEK293T cells (human) (UniProt Q13421); assay: competitive FACS on CHO-K1-human MSLN-2C8 cells vs Biotin-Tab142; competitor at 4 nM
[9] = biological target: human MSLN-R3-rFc protein (human) (UniProt Q13421); assay: ELISA, antibody 100 nM
[10] = biological target: human MSLN full-length protein, recombinant, on CHO-K1 or HEK293T cells (human) (UniProt Q13421); assay: competitive FACS on CHO-K1-human MSLN-2C8 cells vs Biotin-Tab131; competitor at 0.32 nM
[11] = biological target: chimeric human MSLN-R3 / chicken MSLN-R1-2 protein on HEK293T cells (clone A5) (chicken; human); assay: FACS, HEK293T-chickR1-2/hR3-A5 cells
Sequence of chimeric human MSLN-R3 / chicken MSLN-R1-2 protein on HEK293T cells (clone A5) (chicken; human) (Q13421 495-614, change not shown): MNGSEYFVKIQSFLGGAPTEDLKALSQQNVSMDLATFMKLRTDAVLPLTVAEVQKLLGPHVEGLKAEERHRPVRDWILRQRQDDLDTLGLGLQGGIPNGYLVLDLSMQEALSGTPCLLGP

[12] = biological target: human MSLN full-length protein, recombinant, on CHO-K1 or HEK293T cells (human) (UniProt Q13421); assay: competitive FACS on CHO-K1-human MSLN-2C8 cells vs Biotin-Tab142; competitor at 0.16 nM
[13] = biological target: monkey MSLN full-length protein on HEK293T cells (monkey); assay: FACS, HEK293T-monkey-MSLN cells, antibody 0.00128 nM
[14] = biological target: human MSLN full-length protein, recombinant, on CHO-K1 or HEK293T cells (human) (UniProt Q13421); assay: competitive FACS on CHO-K1-human MSLN-2C8 cells vs Biotin-Tab142; competitor at 20 nM
[15] = biological target: chimeric human MSLN-R3 / chicken MSLN-R1-2 protein on HEK293T cells (clone A5) (chicken; human); assay: FACS, HEK293T-hR3/chickR1-2-A5 cells, antibody 20 nM
[16] = biological target: human MSLN full-length protein, recombinant, on CHO-K1 or HEK293T cells (human) (UniProt Q13421); assay: FACS, HEK293T-hMSLN-B8 cells, antibody 0.2 nM
[17] = biological target: human MSLN full-length protein, recombinant, on CHO-K1 or HEK293T cells (human) (UniProt Q13421); assay: competitive FACS on CHO-K1-human MSLN-2C8 cells vs Biotin-Tab142; competitor at 40 nM
[18] = biological target: human MSLN full-length protein, recombinant, on CHO-K1 or HEK293T cells (human) (UniProt Q13421); assay: competitive FACS on CHO-K1-human MSLN-2C8 cells vs Biotin-Tab131; competitor at 0.0128 nM
[19] = biological target: human MSLN protein endogenously expressed on tumor cells (Hela, OVCAR3) (human) (UniProt Q13421); assay: FACS, OVCAR3 cells, antibody 100 nM
Sequence of human MSLN protein endogenously expressed on tumor cells (Hela, OVCAR3) (human) (Q13421 other isoform, or with tags, fused parts or gaps): as the sequence (Q13421 other isoform, or with tags, fused parts or gaps limits assumed) above, with P14R counted along it

[20] = biological target: monkey MSLN full-length protein on HEK293T cells (monkey); assay: FACS, HEK293T-monkey-MSLN cells, antibody 0.032 nM
[21] = biological target: human MSLN full-length protein on transfected cells (CHO-K1-hMSLN clones 2C8, 2D11, 2C5; HEK293T-hMSLN clones B8, 2A4, 2A7) (human) (UniProt Q13421); assay: FACS, CHO-K1-hMSLN-2C8 cells, antibody 0.16 nM
[22] = biological target: human MSLN protein endogenously expressed on tumor cells (Hela, OVCAR3) (human) (UniProt Q13421); assay: FACS, OVCAR3 cells, antibody 20 nM
[23] = biological target: human MSLN full-length protein, recombinant, on CHO-K1 or HEK293T cells (human) (UniProt Q13421); assay: competitive FACS on CHO-K1-human MSLN-2C8 cells vs Biotin-Tab131; competitor at 40 nM
[24] = biological target: human MSLN full-length protein on transfected cells (CHO-K1-hMSLN clones 2C8, 2D11, 2C5; HEK293T-hMSLN clones B8, 2A4, 2A7) (human) (UniProt Q13421); assay: FACS, CHO-K1-hMSLN-2C8 cells, antibody 100 nM
[25] = biological target: human MSLN-R3-rFc protein (human) (UniProt Q13421); assay: ELISA, antibody 4 nM
[26] = biological target: human MSLN full-length protein, recombinant, on CHO-K1 or HEK293T cells (human) (UniProt Q13421); assay: competitive FACS on CHO-K1-human MSLN-2C8 cells vs Biotin-Tab131; competitor at 1.6 nM

Sequence of human MSLN full-length protein, recombinant, on CHO-K1 or HEK293T cells (human) (Q13421 other isoform, or with tags, fused parts or gaps limits assumed): as the sequence (Q13421 other isoform, or with tags, fused parts or gaps limits assumed) above

MFI of Biotin-Tab142 [1]: 23000 | MFI of Biotin-Tab131 [2]: 12900 | FACS signal (MFI) [3]: 116 | MFI of Biotin-Tab142 [4]: 43700 | FACS signal (MFI) [5]: 156 | FACS signal (MFI) [6]: 85 | MFI of Biotin-Tab142 [7]: 24000 | MFI of Biotin-Tab142 [8]: 43100 | OD450 nm [9]: 0.21 | MFI of Biotin-Tab131 [10]: 12700 | Max MFI [11]: 115 | MFI of Biotin-Tab142 [12]: 43600 | FACS signal (MFI) [13]: 84 | MFI of Biotin-Tab142 [14]: 42600 | MFI [15]: 74 | MFI [16]: 65 | MFI of Biotin-Tab142 [17]: 23600 | MFI of Biotin-Tab131 [18]: 12600 | FACS signal (MFI) [19]: 93 | FACS signal (MFI) [20]: 125 | FACS signal (MFI) [21]: 59 | FACS signal (MFI) [22]: 78 | MFI [22]: 329 | MFI of Biotin-Tab131 [23]: 12500 | FACS signal (MFI) [24]: 72 | OD450 nm [25]: 0.15 | MFI of Biotin-Tab131 [26]: 12600
Substance: hIgG1 (antibody)
